Data as given in patent US20150299277A1, “AGENT FOR TREATING OR PREVENTING SYSTEMIC INFLAMMATORY RESPONSE SYNDROME” (THE UNIVERSITY OF TOKYO, priority 2012, published 2015).
“Also recorded” adds a separate entry of the source.

Legend:
[1] = biological target: T1, histone H4 (Homo sapiens, UniProt P62805); assay: ELISA binding assay; design: purchased NEB; details: immobilized recombinant histone, absorbance at 450 nm
Procedure: (§1) Recombinant human histone (NEB) was adjusted to a concentration of 1 μg/mL in TBS, added to a 96 well ELISA plate, and immobilized at 4° C. overnight. The solution was discarded, a blocking buffer (TBS, 0.1% Triton-X100, 1% BSA) was added, and the plate was incubated at room temperature for 2 hr. The plate was washed four times with a wash buffer (TBS, 0.1% Triton-X100), recombinant PTX3 diluted to various concentrations with the blocking buffer was added to each well, and reacted at room temperature for 1 hr. After washing four times with the wash buffer, HRP-labeled antibody diluted with the blocking buffer was added, and reacted at room temperature for 1 hr. After washing four times with the wash buffer, TMB solution was added to carry out a color development reaction for 30 min, and the absorbance at 450 nm was measured. Assay was performed using all the buffers containing 4 mM CaCl2 or 4 mM EDTA.
(§2) The binding level between immobilized each recombinant histone and tag-free recombinant human PTX3 (rhPTX3) was measured by binding assay (ELISA). For the detection, HRP-labeled anti-PTX3 monoclonal antibody (PPZ1228) was used. ELISA was performed with duplicate wells for each point, and means and standard deviations were calculated from three independent experiments.
as §2, with “a tagged” for “tag-free recombinant”, “fragment” for “(rhPTX3)”, “For” for “For the”, “anti-His (6×His)” for “anti-PTX3 monoclonal”, “antibody” for “antibody (PPZ1228)”

[2] = tested on: mice intraperitoneally administered with LPS; assay: LPS-administered mouse; format: in vivo
Procedure: At 0, 6 and 24 hr from the LPS administration, heparin plasma was collected, and the concentrations of mouse IL-6 and mouse VEGF were measured using ELISA kit (R&D).
The survival rate of the mice intraperitoneally administered with LPS at a concentration of 16 mg/kg is shown. The N-terminal domain of PTX3 (5 mg/kg) or control buffer was intraperitoneally administered 2 hr prior to LPS administration. In addition, the time-course changes in the plasma IL-6 and VEGF levels of the LPS-administrated mice treated with the N-terminal domain of PTX3 were measured by ELISA.

[3] = tested on: mouse subjected to cecal ligation and puncture (CLP); assay: Cecal ligation and puncture (CLP) mouse; format: in vivo; details: 5 mg/kg with gentamicin 5 mg/kg, 4 hr after CLP, versus gentamicin alone
Procedure: For cecal ligation and puncture (CLP) treatment, male C57BL/6 mouse was anesthetized, laparotomy was performed, and cecum was exposed and ligated. A hole is made with an injection needle at the middle between the ligated site and cecum peripheral site, and the abdomen is closed. Four hours from the CLP treatment, the N-terminal domain of PTX3 (5 mg/kg) and gentamicin (5 mg/kg), or gentamicin (5 mg/kg) alone were(was) administered to the mouse.
Mouse was subjected to cecal ligation and puncture (CLP) treatment and, 4 hr later from the treatment, the N-terminal domain of PTX3 (5 mg/kg) and gentamicin (5 mg/kg), or gentamicin (5 mg/kg) alone were(was) administered to the mouse.

[4] = biological target: T2, histone H2B (Homo sapiens, UniProt Q16778); assay: ELISA binding assay; details: immobilized recombinant histone
T2 construct: purchased NEB
Procedure: as §1
as §2, with “a tagged” for “tag-free recombinant”, “fragment” for “(rhPTX3)”, “For” for “For the”, “anti-His (6×His)” for “anti-PTX3 monoclonal”, “antibody” for “antibody (PPZ1228)”

[5] = biological target: T3, histone H2A (Homo sapiens, UniProt Q7L7L0); assay: ELISA binding assay; details: immobilized recombinant histone
T3 construct: purchased NEB
Procedure: as §1
as §2, with “a tagged” for “tag-free recombinant”, “fragment” for “(rhPTX3)”, “For” for “For the”, “anti-His (6×His)” for “anti-PTX3 monoclonal”, “antibody” for “antibody (PPZ1228)”

[6] = biological target: T1, histone H4; assay: CD spectrum of histone H4-PTX3 complex
Procedure: The CD spectrum of the histone H4-PTX3 complex was measured. The N-terminal domain of PTX3 (25 μg/mL) and histone H4 (5 μg/mL) were each independently measured, and further, the histone H4-PTX3 mixture was measured (FIG. 6D).

[7] = tested on: histone H4 on HUVEC; assay: Cytotoxic assay: suppression of histone cytotoxicity on HUVEC; format: cell-based, human; details: 1 hr culture, PI staining, FACS
Procedure: (§3) Normal human umbilical vein endothelial cells (HUVECs) were cultured in EGM2 medium (Clonetics). The cells after culture were washed with PBS, added with Opti-MEM medium containing an product of incubation of activated protein C (APC), PTX3, C reactive protein (CRP) or Serum amyloid P component (SAP) with histone for 1 hr, and the cells were further cultured for 1 hr. Propidium iodide (PI) was added to the medium after culture at a final concentration of 10 μg/mL, and the cells were stained for 10 min. The cells were washed with PBS, detached and analyzed by flow cytometry.
(§4) Using each recombinant histone instead of Calf Thymus Histones, a suppressive effect of full-length PTX3 or the N-terminal domain of PTX3 on histone cytotoxicity was studied in the same manner.
Lastly, capacity of suppressing the cytotoxic activity of histone was confirmed. Since this experiment requires a certain amount of protein and an endotoxin-elimination as treatment, a protein was expressed and purified at a 500 mL culture scale, and subjected to an endotoxin-elimination treatment (FIG. 18). In the case of PTX3 N-terminal domain, about 10 mg was obtained at a 500 mL culture scale, and a loss by the endotoxin-elimination treatment was scarcely observed. […] A capacity of fragment proteins obtained at a 500 mL scale on HUVEC to suppress histone cytotoxicity was studied. […]

[8] = tested on: each recombinant histone on HUVEC; assay: as above; format: cell-based, human; details: 1 hr culture, PI staining, FACS
Procedure: as §3, §4

[9] = biological target: T1, histone H4; assay: PTX3-histone aggregation, UV-visible absorption spectrum (310 nm); format: binding; design: purchased NEB; details: PTX3 at various concentrations mixed with histone H4
Procedure: 0.1 mg/mL human histone H4 was mixed with equal volume of various concentrations of Myc-tagged full-length PTX3, and UV-visible absorption spectrum was measured. A graph of absorbance at 310 nm is shown at the top.
Full-length PTX3 at each concentration was mixed with 50 μg/mL histone H4, and UV-visible absorption spectrum (wavelength 310 nm) was measured.

[10] = tested on: Calf Thymus Histones; assay: Dose-dependent precipitate formation (supernatant after centrifugation); format: binding; details: PTX3 0, 12.5, 25, 50 μg/mL; histones 50 μg/mL
Procedure: Full-length PTX3 at each concentration (0, 12.5, 25, 50 μg/mL) was mixed with Calf Thymus Histones (50 μg/mL) or histone H4 (50 μg/mL), and the mixture was centrifuged. The obtained supernatant was subjected to immunoblotting using PPZ-1228 or SYPRO Ruby staining.

[11] = LPS-administrated mice, 5 mg/kg, ELISA

Row | Substance | binding to histone H4 (binding assay) [1] | binding to histone H4 (binding assay) ([1]; listed as N-terminal domain) | inflammatory reaction caused by LPS administration (biochemical study of blood) ([2]; 5 mg/kg intraperitoneally 2 hr prior to LPS 16 mg/kg) | mortality due to LPS administration ([2]; 5 mg/kg intraperitoneally 2 hr prior to LPS 16 mg/kg, C57BL/6 mice) | plasma IL-6 level [2, 11] | plasma VEGF level [2, 11] | mortality due to the CLP treatment [3] | bindability to histone H2B (binding assay) [4] | bindability to histone H2A (binding assay) [5] | CD spectrum, mixed with histone H4 ([6]; 25 μg/mL with histone H4 5 μg/mL) | CD spectrum, alone ([6]; 25 μg/mL, measured independently) | suppression of toxic activity of histone H4 on HUVEC [7] | suppression of toxic activity of each recombinant histone on HUVEC [8] | aggregation with histone H4, UV-visible absorption spectrum [9] | precipitate formation with Calf Thymus Histones [10]
1 | N-terminal domain of PTX3: N-terminal domain human PTX3 (18-178 amino acids, SEQ ID NO: 3), tagged, expressed in CHO cells or Escherichia coli | equivalent to that of the full-length PTX3 | strong bindability | suppressed | significantly improved mortality | suppressed | suppressed | significantly improved | lower than that of the full-length PTX3 | lower than that of the full-length PTX3 | did not afford a spectrum pattern showing a general secondary structure | a spectrum pattern having α-helix in the secondary structure | suppress; also recorded: suppressed | – | – | –
2 | full-length PTX3: full-length human pentraxin 3 (1-381 amino acids, SEQ ID NO: 2), used tag-free or Myc- and His-tagged | strong binding affinity | – | – | – | – | – | – | – | – | – | – | – | suppressed | dose-dependent spectrum | precipitated as an insoluble product
